According to patent US20100040754A1:

Biological target: hT1R2-hT1R3, human sweetness receptor (human) (UniProt Q8TE23)
Assay: cell-based or functional assay

UniProt Q8TE23, sequence (Q8TE23 20-839, chain 1 of 2): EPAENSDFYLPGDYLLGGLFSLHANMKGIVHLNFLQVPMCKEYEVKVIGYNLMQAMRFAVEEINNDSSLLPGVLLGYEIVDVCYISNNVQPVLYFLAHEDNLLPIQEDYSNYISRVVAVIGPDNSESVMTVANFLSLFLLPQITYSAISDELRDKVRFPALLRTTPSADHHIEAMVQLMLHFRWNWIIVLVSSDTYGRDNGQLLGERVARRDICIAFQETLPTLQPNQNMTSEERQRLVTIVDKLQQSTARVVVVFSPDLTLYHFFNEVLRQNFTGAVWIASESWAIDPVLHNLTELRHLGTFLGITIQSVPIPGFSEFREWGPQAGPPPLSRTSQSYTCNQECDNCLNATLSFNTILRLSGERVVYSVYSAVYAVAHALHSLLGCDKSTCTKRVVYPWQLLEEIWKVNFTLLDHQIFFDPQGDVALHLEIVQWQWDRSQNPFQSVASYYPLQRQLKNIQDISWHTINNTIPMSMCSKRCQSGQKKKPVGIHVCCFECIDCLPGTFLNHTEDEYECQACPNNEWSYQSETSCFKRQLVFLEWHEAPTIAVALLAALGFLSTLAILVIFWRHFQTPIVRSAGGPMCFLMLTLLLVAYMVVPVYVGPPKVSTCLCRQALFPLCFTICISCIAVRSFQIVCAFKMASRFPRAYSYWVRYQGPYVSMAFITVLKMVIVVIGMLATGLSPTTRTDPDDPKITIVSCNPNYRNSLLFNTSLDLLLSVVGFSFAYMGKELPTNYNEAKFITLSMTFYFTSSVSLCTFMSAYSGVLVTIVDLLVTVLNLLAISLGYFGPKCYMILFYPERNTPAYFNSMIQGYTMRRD
UniProt Q8TE23, sequence (Q7RTX0 21-852, chain 2 of 2, further chain): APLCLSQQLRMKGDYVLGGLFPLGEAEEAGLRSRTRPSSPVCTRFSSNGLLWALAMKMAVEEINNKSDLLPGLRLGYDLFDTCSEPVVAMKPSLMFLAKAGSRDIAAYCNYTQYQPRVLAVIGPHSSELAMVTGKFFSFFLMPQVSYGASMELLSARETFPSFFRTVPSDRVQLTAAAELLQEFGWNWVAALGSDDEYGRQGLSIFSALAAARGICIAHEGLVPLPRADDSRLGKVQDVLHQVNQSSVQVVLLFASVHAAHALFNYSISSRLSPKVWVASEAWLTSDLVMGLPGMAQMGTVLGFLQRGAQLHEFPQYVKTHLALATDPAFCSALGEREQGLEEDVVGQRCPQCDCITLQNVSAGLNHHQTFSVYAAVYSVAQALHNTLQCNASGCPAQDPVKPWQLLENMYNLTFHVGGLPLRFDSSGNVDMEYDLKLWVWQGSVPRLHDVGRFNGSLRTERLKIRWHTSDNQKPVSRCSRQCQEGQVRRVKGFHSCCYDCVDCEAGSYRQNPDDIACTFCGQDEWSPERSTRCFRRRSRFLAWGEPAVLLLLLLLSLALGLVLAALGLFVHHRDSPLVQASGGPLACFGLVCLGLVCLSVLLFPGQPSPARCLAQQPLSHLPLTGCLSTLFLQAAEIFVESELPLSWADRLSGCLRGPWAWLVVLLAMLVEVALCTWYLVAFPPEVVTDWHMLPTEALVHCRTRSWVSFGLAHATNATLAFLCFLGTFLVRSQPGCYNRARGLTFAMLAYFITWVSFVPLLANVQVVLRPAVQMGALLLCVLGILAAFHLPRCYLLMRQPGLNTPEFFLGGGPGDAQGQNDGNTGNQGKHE

- response of the cells around pH 7, against the response in the acidic region (fraction of the response): 0.5
- response of the cells around pH 8, against the response in the acidic region (fraction of the response): 0.1
Substance: neoculin (heterodimer of polypeptide NAS and polypeptide NBS) (from UniProt Q6F495 23-135; P19667 23-136) (ligand)
